{"source": "patent US7449443B2", "about": "“Method for stabilization of proteins using non-natural amino acids” (California Institute of Technology, priority 2000, dated 2008)", "key": {"[1]": {"system": "E. coli leucine auxotroph SG13009", "assay": "Analog incorporation assay: A1 expression in leucine auxotroph", "assay_type": "cell-based", "details": "leucine-free medium supplemented with analog, western blot", "protocol": "Analog Incorporation Assay. The expression vector pQE-A1, which contains the coding sequences for the protein A1 (FIG. 4A) was obtained from US Army Natick RD&E Center (Natick, Mass.). The E. coli leucine auxotroph SG13009 was obtained from Qiagen (Chatsworth, Calif.) and transformed with plasmids pREP4 and pQE-A1, to yield the expression host […] medium (30 ml) supplemented with 1 mM MgSO4, 1 mM CaCl2, […], 1 mg/L thiamin and the antibiotics ampicillin (200 mg/L) and kanamycin (25 mg/L) were inoculated with 1 ml of an overnight 2×YT culture of the expression strain. […] The supernatant was removed and the cell pellets were washed with 0.9% NaCl and sedimented (5000 g, 10 min, 4° C.). The washing and sedimentation steps were repeated three times to remove residual leucine. The washed cells were then resuspended in 31 ml of supplemented […] medium, without leucine. Aliquots (5 ml) were added to test tubes containing no leucine (negative control), L-leucine (20 mg/L, positive control), DL-trifluoroleucine (40 mg/L) or DL-hexafluoroleucine (40 mg/L). The cultures were grown for 10 min at 37° C., and isopropyl-β-D-thiogalactopyranoside (IPTG) was added to a final concentration of 1 mM. […] The whole cell lysate was analyzed by 15% SDS-PAGE. The proteins were detected by western blotting with an antibody specific for the N-terminal His-Tag of A1 (FIG. 4B)."}, "[2]": {"target": "oligonucleotides containing the CREB binding site", "assay": "Mobility shift (gel-retardation) assay, CREB", "details": "densitometry analysis of mobility shift assay", "from_the_text": "(§1) (FIG. 3B) Leu-bZip binds to both the AP-1 and CREB binding sites with equal affinities even though the spacing between the half-sites of DNA is different."}, "[3]": {"system": "nonspecific sequence (NON) oligonucleotides", "assay": "Mobility shift (gel-retardation) assay, nonspecific sequence", "assay_type": "binding", "from_the_text": "as §1"}, "[4]": {"target": "oligonucleotides containing the AP-1 binding site", "assay": "Mobility shift (gel-retardation) assay, AP-1", "details": "densitometry analysis of mobility shift assay", "from_the_text": "as §1"}, "[5]": {"assay": "CD thermal unfolding of GCN4-p1 coiled-coil peptides", "assay_type": "physicochemical", "protocol": "(§2) Circular Dichroism (CD) Analysis. CD spectra were recorded on an Aviv 62DS spectropolarimeter (Lakewood, N.J.) in PBS buffer, pH 7.4. All peptide concentrations were determined by amino acid analysis of a stock solution (5 mg/ml). Experiments were performed in a rectangular cell with pathlength of 1 cm for low concentration samples and pathlength of 1 mm for high concentration samples. Spectra were scanned from 250 nm to 200 nm with data taken every 1 nm. The temperature of the solution was maintained by a thermostatically controlled cuvette holder (HP model 89101A). Temperature scans were performed from 0° C. to 100° C. in 1° C. steps. Three scans were performed on a single sample and averaged. Each data point was collected after 30 seconds of thermal equilibration at the desired temperature. Urea titration scans were performed manually starting with the 8 M concentrated sample followed by serial dilution to the desired urea concentration. At each concentration, the sample was allowed to equilibrate for 5 min before recording the CD signal.\n(§3) The analysis of CD thermal melting data was performed according to a previously described procedure using a two-state model (Schneider, J. P.; Lear, J. D.; DeGrado, W. F. J. Am. Chem. Soc. 1997, 119, 5742-5743). Temperature-dependent ellipticity data for each protein at different concentrations were fitted globally using a non-linear least-squares fitting procedure supplied with the Origin 6.0 software. For wild-type A1, the concentrations used for curve fitting were 10 and 100 μM, while 2 and 100 μm were used to fit data for the 92% fluorinated A1. The thermodynamic quantities Tm, ΔHm, ΔCp and Kd were parameters of the fitting procedure and are reported in the 1 M standard state. The free energy of folding at any temperature is given by equation 1. ΔG°=ΔHm(1−T/Tm)−ΔCp((Tm−T)+T1n(T/Tm) (1)\nThe thermal stabilities of the coiled-coil dimers of Leu-GCN4-p1 and Tfl-GCN4-p1 were examined by CD spectroscopy (FIG. 2B). A significant increase in the thermal stability of Tfl-GCN4-p1 as compared to Leu-GCN4-p1 is reflected in an elevation of the thermal denaturation temperature from 48° C. to 61° C. The 13° C. increase in Tm is remarkable in view of the fact that no increase in the thermal stability of GCN4-p1 has been reported based solely on substitution of the leucine residues at the d-positions. […] As expected for a monomer-dimer equilibrium, the denaturation curves depend on the peptide concentrations, and their midpoints shift to higher temperature as the concentrations of peptides are increased (FIG. 2C). The thermodynamic changes associated with the transition (folded dimer to unfolded monomers) is calculated from the melting curves by fitting the data to a monomer-dimer equilibrium (J. P. Schneider, J. D. Lear and W. F. DeGrado, J. Am. Chem. Soc. 119, 5742, 1997). Global analysis of the thermal unfolding curves at two different concentrations, approximately 85 μM and 3 μM, gave a calculated ΔH° of 60.2 kcal mol^−1, Tm of 385.4 K and ΔCp of 530 cal mol^−1 K^−1 for Tfl-GCN4-p1 (1 M standard state); the corresponding values for Leu-GCN4-p1 are 70.3 kcal mol^−1, 365.6 K and 740 cal mol^−1 K^−1 respectively."}, "[6]": {"assay": "CD thermal denaturation of A1 proteins with two-state global fitting", "assay_type": "physicochemical", "details": "for ΔCp (1M) heat capacity change upon folding: 1M standard state, uncertainty 120; for ΔHm (1M) enthalpy of folding: at midpoint temperature, extrapolated to 1M standard state, uncertainty 4.8; for Tm (1M): extrapolated to 1M standard state by non-linear least square fit, uncertainty ± 1.5° C.; for Tm (10 μM): midpoint of thermal denaturation curve at 10 μM protein", "protocol": "Insert: The thermal melting temperature (Tm) plotted as a function of level of incorporation. Tm is defined as the temperature at which 50% of the peptide has unfolded. The stability of the protein increases with increasing level of 2trifluoroleucine substitution. (10 μM protein concentration, PBS buffer, pH 7.4).\nas §2, §3\nGlobal thermodynamic fitting was used to obtain the thermodynamic quantities associated with the monomer to dimer transition for A1-WT and FA1-92. The intermediate level fluorinated proteins, FA1-17 and FA1-29 were not fitted using the procedure because the heterogeneity of the samples would not be described accurately by the two-state model. The presence of a heterogeneous population can be seen from the broadening of the thermal melting curves at substitution rates of 17 and 29%. However, even for the nearly completely substituted FA1-92, the protein sample was still a mixed population because Tfl was used as an equal molar mixture of (2S, 4S) and (2S, 4R) diastereomers. The free energy of unfolding for FA1-92 was 2.4 kcal/mol more favorable than A1-WT at 37° C., which corresponded to 0.4 kcal/mol of stabilizing energy per Tfl molecule involved at the helix interface. Considering the large number of leucines packed in the hydrophobic core of proteins, the additive stabilizing effects of Tfl can be quite substantial."}, "[7]": {"assay": "Urea titration of A1 proteins by CD", "assay_type": "physicochemical", "details": "0° C., 10 μM protein, PBS, pH 7.4", "protocol": "The fraction of unfolded protein is plotted against increasing urea concentration. Insert: The urea concentration at which 50% of protein is denatured is plotted against the extent of fluorination. (10 μM protein concentration, PBS buffer, pH 7.4).\nas §2"}, "[8]": {"details": "global analysis of thermal unfolding curves, 1 M standard state"}}}
{"molecule": "N[C@@H](CC(C(F)(F)F)C(F)(F)F)C(=O)O", "note": "[Hfl, 5,5,5,5′,5′,5′-hexafluoroleucine]", "values": [{"measurement": "ability to support protein synthesis (A1 expression)", "setting": "[1]", "result": "does not support measurable protein synthesis"}]}
{"molecule": "Leu-bZip: wild-type 56 amino acid segment (residues 226-281) of the eukaryotic transcription factor GCN4", "values": [{"measurement": "Kd", "setting": "[2]", "result": "4.8 ± 0.5", "unit": "nM"}, {"measurement": "recognition of nonspecific (NON) sequences", "setting": "[3]", "result": "lack of protein-bound DNA"}, {"measurement": "Kd", "setting": "[4]", "result": "12.8 ± 1", "unit": "nM"}]}
{"molecule": "Leu-GCN4-p1: wild type form of the leucine zipper peptide GCN4-p1, not acylated at the N-terminus [reference compound]", "values": [{"measurement": "thermal denaturation temperature (Tm)", "setting": "[5]; CD spectroscopy, coiled-coil dimers", "result": 48, "unit": "°C"}, {"measurement": "ΔH°", "setting": "[5]; global analysis of thermal unfolding curves at approximately 85 μM and 3 μM, 1 M standard state", "result": 70.3, "unit": "kcal/mol"}, {"measurement": "Tm", "setting": "[5]; [8]", "result": 92.5, "unit": "°C"}, {"measurement": "ΔCp", "setting": "[5]; [8]", "result": 740, "unit": "cal mol^−1 K^−1"}]}
{"molecule": "FA1-92: trifluoroleucine-substituted A1 protein, 92% replacement of leucine by amino acid analysis (protein) MRGSHHHHHHGSMASGDLENEYAQLEREVRSLEDEAAELEQKVSRLKNEIEDLAEIGDLNNTSGIRRPAAKLN", "values": [{"measurement": "Tm elevation compared to A1-WT", "setting": "[6]; 10 μM protein, PBS, pH 7.4", "result": 13, "unit": "°C"}, {"measurement": "ΔCp (1M) heat capacity change upon folding", "setting": "[6]", "result": "−272", "unit": "cal/mol-K"}, {"measurement": "free energy of unfolding more favorable than A1-WT", "setting": "[6]; at 37° C.", "result": 2.4, "unit": "kcal/mol"}, {"measurement": "stabilizing energy per Tfl molecule involved at the helix interface", "setting": "[6]; at 37° C.", "result": 0.4, "unit": "kcal/mol"}, {"measurement": "ΔHm (1M) enthalpy of folding", "setting": "[6]", "result": -77.0, "unit": "kcal/mol"}, {"measurement": "Tm (1M)", "setting": "[6]", "result": 116, "unit": "°C"}, {"measurement": "Tm (10 μM)", "setting": "[6]; PBS, pH 7.4", "result": 67, "unit": "°C"}, {"measurement": "resistance to thermal and chemical denaturation", "setting": "[6]; thermal and chemical (urea) unfolding studies", "result": "highly resistant"}, {"measurement": "Curea, 50% (Cm), midpoint urea denaturation concentration", "setting": "[7]", "result": 7, "unit": "M"}]}
{"molecule": "A1-WT: wild type leucine-zipper protein A1 with eight leucine residues, expressed in E. coli (protein) MRGSHHHHHHGSMASGDLENEYAQLEREVRSLEDEAAELEQKVSRLKNEIEDLAEIGDLNNTSGIRRPAAKLN", "values": [{"measurement": "ΔCp (1M) heat capacity change upon folding", "setting": "[6]", "result": "−252", "unit": "cal/mol-K"}, {"measurement": "ΔHm (1M) enthalpy of folding", "setting": "[6]", "result": -70.9, "unit": "kcal/mol"}, {"measurement": "Tm (1M)", "setting": "[6]", "result": 103, "unit": "°C"}, {"measurement": "Tm (10 μM)", "setting": "[6]; PBS, pH 7.4", "result": 54, "unit": "°C"}, {"measurement": "Curea, 50% (Cm), midpoint urea denaturation concentration", "setting": "[7]", "result": 2.7, "unit": "M"}, {"measurement": "Curea, 50% (Cm), midpoint urea denaturation concentration", "setting": "[7]; listed as Al-WT", "result": 2.8, "unit": "M"}]}
